Assay results published in patent publication US20170174776A1 (Hoffmann-La Roche, published 2017).

B1: mAb 128.1 (mouse anti-human transferrin-receptor antibody 128.1 variable regions with human IgG1 heavy and light chain constant regions) (antibody, V domains shown)
VH: EVQLQQSGPELVKPGASMKISCKASGYSFTGYTMNWVKQSHGENLEWIGRINPHNGGTDYNQKFKDKAPLTVDKSSNTAYMELLSLTSEDSAVYYCARGYYYYSLDYWGQGTSVTVSS
VL: QIVLTQSPAIMSASPGEKVTMTCSASSSIDYIHWYQQKSGTSPKRWIYDTSKLASGVPARFSGSGSGTSYSLTISSMEPEDAATYYCHQRNSYPWTFGGGTRLEIR
B2: mAb 8D3 (rat anti-mouse transferrin-receptor antibody 8D3 variable regions with human IgG1 heavy and light chain constant regions) (antibody, V domains shown)
VH: EVQLVESGGGLVQPGNSLTLSCVASGFTFSNYGMHWIRQAPKKGLEWIAMIYYDSSKMNYADTVKGRFTISRDNSKNTLYLEMNSLRSEDTAMYYCAVPTSHYVVDVWGQGVSVTVSS
VL: DIQMTQSPASLSASLEEIVTITCQASQDIGNWLAWYQQKPGKSPQLLIYGATSLADGVPSRFSGSRSGTQFSLKISRVQVEDIGIYYCLQAYNTPWTFGGGTKLELK

Legend:
[1] = biological target: T1, fusion protein of the human transferrin receptor extracellular domain linked to human IgG1 Fc (human, UniProt P02786 89-760); assay: ELISA, coated human TfR ECD-Fc, pH 7.4
T1 construct: extracellular domain; Bought, R&D Systems #2474-TR-050; also called human TfR; not shown: human IgG1 Fc
Procedure: (§1) A fusion protein of the human transferrin receptor extracellular domain linked to human IgG1 Fc (R&D Systems, Wiesbaden, Germany, #2474-TR-050) or the extracellular domain of the mouse transferrin receptor (SinoBiological, Beijing, China, #50741-M07H) or of the human insulin receptor (R&D Systems, Wiesbaden, Germany, #1544-IR/CF) were coated to a 96-well plate by incubating 50 μl of a solution of 1 μg/ml in PBS for 1 h at RT. […] After four further washes with PBS/0.1% (w/v) TWEEN 20, bound antibodies were detected using HRP-coupled secondary antibodies (Dianova, Hamburg, Germany, #109-036-097 or GE Healthcare, Freiburg, Germany, #NA9310V)(30 min., RT) and 50 μl of TMB (10 min., RT) substrate. Color development was stopped by addition of 50 μl of 1 N hydrochloric acid (HCl) and absorbance measured at 450 nm in a plate reader.

[2] = biological target: T1, fusion protein of the human transferrin …; assay: ELISA, coated human TfR ECD-Fc, pH 5.5 against pH 7.4
Procedure: as §1

[3] = biological target: T1, fusion protein of the human transferrin …; assay: ELISA, coated human TfR ECD-Fc, pH 5.5
Procedure: as §1

[4] = biological target: T2, extracellular domain of the mouse transferrin receptor (mouse, UniProt Q62351 89-763); assay: ELISA, coated mouse TfR ECD, pH 5.5
T2 construct: extracellular domain; Bought, SinoBiological #50741-M07H; also called mouse TfR

[5] = biological target: T2, extracellular domain of the mouse …; assay: ELISA, coated mouse TfR ECD, pH 7.4
[6] = biological target: T2, extracellular domain of the mouse …; assay: ELISA, coated mouse TfR ECD, pH 5.5 against pH 7.4

T1 sequence (P02786 89-760): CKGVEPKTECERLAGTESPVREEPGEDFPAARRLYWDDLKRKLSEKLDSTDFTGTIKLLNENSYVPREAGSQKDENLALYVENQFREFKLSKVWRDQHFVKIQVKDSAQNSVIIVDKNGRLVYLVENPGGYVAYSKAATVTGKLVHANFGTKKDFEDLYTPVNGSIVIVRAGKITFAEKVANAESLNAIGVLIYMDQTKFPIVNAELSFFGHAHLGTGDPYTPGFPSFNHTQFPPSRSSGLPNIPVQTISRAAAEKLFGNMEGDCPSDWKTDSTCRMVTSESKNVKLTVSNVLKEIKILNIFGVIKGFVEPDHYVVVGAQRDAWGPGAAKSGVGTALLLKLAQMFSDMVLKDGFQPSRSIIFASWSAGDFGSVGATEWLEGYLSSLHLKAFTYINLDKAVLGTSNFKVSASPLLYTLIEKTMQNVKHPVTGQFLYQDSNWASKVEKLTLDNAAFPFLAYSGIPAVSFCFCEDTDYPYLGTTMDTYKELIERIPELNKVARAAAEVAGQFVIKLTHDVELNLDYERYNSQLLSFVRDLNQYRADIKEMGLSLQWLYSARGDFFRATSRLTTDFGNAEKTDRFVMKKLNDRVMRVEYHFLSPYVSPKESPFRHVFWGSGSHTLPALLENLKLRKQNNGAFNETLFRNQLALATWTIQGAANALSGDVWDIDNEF
T2 sequence (Q62351 89-763): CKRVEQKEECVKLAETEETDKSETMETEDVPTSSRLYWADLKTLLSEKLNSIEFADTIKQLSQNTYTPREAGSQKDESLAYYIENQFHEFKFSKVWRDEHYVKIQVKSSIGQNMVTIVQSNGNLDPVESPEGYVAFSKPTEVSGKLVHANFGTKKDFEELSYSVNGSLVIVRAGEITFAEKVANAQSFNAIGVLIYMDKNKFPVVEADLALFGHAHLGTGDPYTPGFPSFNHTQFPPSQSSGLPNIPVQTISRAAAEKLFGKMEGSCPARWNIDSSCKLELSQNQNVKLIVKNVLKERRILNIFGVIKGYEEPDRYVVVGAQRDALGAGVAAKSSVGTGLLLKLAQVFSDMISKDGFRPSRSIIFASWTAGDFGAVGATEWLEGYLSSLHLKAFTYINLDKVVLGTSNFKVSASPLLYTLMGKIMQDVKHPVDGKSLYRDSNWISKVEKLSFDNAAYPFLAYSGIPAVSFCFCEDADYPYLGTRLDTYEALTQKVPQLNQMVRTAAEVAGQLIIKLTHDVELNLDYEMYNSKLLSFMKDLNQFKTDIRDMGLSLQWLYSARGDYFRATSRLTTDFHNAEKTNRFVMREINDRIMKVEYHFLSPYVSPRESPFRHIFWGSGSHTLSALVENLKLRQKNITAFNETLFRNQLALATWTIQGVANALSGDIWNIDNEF

| Binder | EC50 [1] [µg/mL] | ratio EC50 pH 5.5/EC50 pH 7.4 [2] | EC50 [3] [µg/mL] | EC50 [4] [µg/mL] | EC50 [5] [µg/mL] | ratio EC50 pH 5.5/EC50 pH 7.4 [6] |
| --- | --- | --- | --- | --- | --- | --- |
| B1 | 0.0078 | 1.3 | 0.0098 | – | – | – |
| B2 | – | – | – | 0.0549 | 0.0511 | 1.1 |
